Measured values published in patent US20200024360A1 (Janssen / Centocor, published 2020).

Assays:
[1] = target: T1, recombinant chimpanzee PSMA extracellular domain (ECD) protein (Pan troglodytes, UniProt Q04609 44-750 (human entry)); assay: SPR ProteOn, bsAb captured by anti-Fc
T1 construct: also called Chimp PSMA ECD; PSMG8
T1 chain: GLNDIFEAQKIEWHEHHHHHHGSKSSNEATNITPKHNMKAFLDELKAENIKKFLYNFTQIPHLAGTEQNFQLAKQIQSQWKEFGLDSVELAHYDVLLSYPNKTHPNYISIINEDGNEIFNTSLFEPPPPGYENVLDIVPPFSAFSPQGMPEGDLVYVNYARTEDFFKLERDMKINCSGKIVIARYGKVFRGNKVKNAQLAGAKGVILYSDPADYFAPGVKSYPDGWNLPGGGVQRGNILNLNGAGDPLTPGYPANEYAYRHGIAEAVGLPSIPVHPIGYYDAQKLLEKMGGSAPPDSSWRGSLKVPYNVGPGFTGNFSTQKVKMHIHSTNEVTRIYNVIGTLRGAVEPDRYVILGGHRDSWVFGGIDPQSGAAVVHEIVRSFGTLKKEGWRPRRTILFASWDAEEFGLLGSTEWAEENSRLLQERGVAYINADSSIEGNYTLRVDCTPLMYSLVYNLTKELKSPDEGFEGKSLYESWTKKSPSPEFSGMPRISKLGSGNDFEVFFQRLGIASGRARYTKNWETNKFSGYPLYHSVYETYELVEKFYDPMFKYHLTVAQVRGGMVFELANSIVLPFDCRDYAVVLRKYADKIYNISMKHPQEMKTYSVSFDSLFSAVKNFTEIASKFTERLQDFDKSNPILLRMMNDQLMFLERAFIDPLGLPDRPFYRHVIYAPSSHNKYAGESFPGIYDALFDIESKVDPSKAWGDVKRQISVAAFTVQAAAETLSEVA
Experimental: The interactions of PSMA×CD3 bispecific mAbs with target (recombinant Chimp, PSMA) were studied by Surface Plasmon Resonance (SPR) using a ProteOn XPR36 system (BioRad). […] Approximately 4400 RU (response units) of anti-Human IgG Fc antibodies were immobilized. The kinetic experiments were performed at 25° C. in running buffer (DPBS+0.03% P20+100 μg/ml BSA). […] The association phase was monitored for 3 minutes at 50 μL/min, then followed by 15 minutes of buffer flow (dissociation phase). The chip surface was regenerated with two 18 second pulses of 100 mM Phosphoric acid (H₃PO₄, Sigma, cat #7961) at 100 μL/min.
The collected data were processed using ProteOn Manager software. First, the data was corrected for background using inter-spots. Then, double reference subtraction of the data was performed by using the buffer injection for analyte injections. The kinetic analysis of the data was performed using a Langmuir 1:1 binding model.

[2] = target: T2, human PSMA (prostate specific membrane antigen), full length (human, UniProt Q04609 1-750); assay: FACS, whole cell binding, LNCaP; calculated EC50
T2 construct: On LNCaP or C4-2B cells (endogenous) or transduced HEK293F cells; also called FOLH1_HUMAN; hPSMA
T2 sequence (Q04609 whole entry): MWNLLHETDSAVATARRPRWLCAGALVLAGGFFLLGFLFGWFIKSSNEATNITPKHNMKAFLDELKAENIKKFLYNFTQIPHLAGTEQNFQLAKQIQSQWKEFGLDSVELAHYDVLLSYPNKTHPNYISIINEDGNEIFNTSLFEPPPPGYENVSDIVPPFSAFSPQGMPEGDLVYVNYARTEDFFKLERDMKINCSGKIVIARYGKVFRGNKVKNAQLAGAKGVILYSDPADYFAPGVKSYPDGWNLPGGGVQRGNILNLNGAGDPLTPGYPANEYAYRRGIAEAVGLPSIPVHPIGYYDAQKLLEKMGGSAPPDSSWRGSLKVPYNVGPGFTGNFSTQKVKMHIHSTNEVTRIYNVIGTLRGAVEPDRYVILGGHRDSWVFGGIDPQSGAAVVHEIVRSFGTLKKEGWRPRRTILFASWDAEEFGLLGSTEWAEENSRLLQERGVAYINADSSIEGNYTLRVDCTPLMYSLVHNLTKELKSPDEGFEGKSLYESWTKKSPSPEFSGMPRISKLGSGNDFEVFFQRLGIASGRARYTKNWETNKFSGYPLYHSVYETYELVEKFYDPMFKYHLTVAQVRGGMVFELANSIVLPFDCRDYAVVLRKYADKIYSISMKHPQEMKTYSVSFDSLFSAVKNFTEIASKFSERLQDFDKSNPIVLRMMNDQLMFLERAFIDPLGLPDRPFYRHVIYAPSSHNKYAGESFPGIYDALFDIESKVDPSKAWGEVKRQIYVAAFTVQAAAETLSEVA
Experimental: (§1) PSMA×CD3 bispecific antibodies were tested for binding to PSMA positive cell lines LNCAP, human PSMA-HEK, Chimpanzee-PSMA-HEK and Cynomolgous monkey PSMA-HEK. To assess the binding capabilities of the PSMA bispecific antibodies, the cell-binding assay was utilized (described previously). Briefly, PSMA expressing tumor cells are bound by bispecific antibodies at known concentrations and the bound antibody is detected by an anti-human kappa light chain PE conjugated detection reagent (Invitrogen). The Mean Fluorescents Intensity (MFI) is the measure of bound bispecific antibody. The MFI is converted to a relative EC₅₀. EC₅₀ is a commonly used dose-response curve, where the half maximal effective concentration or the EC₅₀ point is defined as the inflection point of the curve. EC₅₀ s were determined by measuring cell bound bispecific and known concentrations. […] The dose response curves were then diluted down to that of background or no bispecific binding. The inflection point of this curve reflects the EC₅₀ point. The calculated EC₅₀ is determined by taking the ug/ml amount of bispecific antibody at the EC₅₀ point and converting it to a molarity value based on the MW of the bispecific antibody. Bispecific antibodies were normalized for protein concentration and then incubated with the same number of cells expressing either human or cyno PSMA. The MFI at each concentration was collected by flow cytometry and plotted as a function of concentration. Data was transformed via log 10 and then plotted. Nonlinear regression of binding curves was done to determine EC₅₀ s. These relative values were used for ranking PSMA binding to target cells.

[3] = target: T3, chimpanzee PSMA, full length (Pan troglodytes, UniProt Q04609 1-750 (human entry)); assay: FACS, whole cell binding, chimp PSMA HEK; calculated EC50
T3 construct: On transfected HEK293F cells; also called chimp PSMA; H2Q3K5_PANTR
T3 chain: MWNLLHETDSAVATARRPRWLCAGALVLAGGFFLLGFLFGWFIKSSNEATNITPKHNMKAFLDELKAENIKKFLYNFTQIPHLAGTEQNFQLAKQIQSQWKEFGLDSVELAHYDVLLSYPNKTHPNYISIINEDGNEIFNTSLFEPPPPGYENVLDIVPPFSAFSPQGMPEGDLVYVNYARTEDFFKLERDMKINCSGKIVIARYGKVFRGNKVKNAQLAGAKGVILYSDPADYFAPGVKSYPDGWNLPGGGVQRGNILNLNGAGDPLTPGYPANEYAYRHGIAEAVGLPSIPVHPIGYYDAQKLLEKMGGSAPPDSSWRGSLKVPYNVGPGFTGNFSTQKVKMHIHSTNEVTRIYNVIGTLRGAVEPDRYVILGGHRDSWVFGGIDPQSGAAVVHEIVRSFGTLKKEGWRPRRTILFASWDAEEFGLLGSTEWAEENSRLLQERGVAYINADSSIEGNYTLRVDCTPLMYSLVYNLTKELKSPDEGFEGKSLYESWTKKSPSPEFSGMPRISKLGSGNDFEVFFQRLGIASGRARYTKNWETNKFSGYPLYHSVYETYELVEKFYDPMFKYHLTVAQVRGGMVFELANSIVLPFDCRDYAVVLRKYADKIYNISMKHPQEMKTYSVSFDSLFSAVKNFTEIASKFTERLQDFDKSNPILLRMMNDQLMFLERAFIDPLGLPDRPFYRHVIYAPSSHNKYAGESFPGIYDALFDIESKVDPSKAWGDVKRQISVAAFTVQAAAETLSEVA
Experimental: as §1

[4] = target: T2, human PSMA (prostate specific membrane …); assay: FACS, whole cell binding, LNCaP
Experimental: as §1

B1: PS3B27 (bispecific antibody, human IgG4 S228P, kappa, lambda, F234A L235A)
heavy 1: not shown
light 1: not shown
heavy 2: EVQLVESGGGLVQPGGSLRLSCAASGFTFNTYAMNWVRQAPGKGLEWVARIRSKYNNYATYYAASVKGRFTISRDDSKNSLYLQMNSLKTEDTAVYYCARHGNFGNSYVSWFAYWGQGTLVTVSSASTKGPSVFPLAPCSRSTSESTAALGCLVKDYFPEPVTVSWNSGALTSGVHTFPAVLQSSGLYSLSSVVTVPSSSLGTKTYTCNVDHKPSNTKVDKRVESKYGPPCPPCPAPEAAGGPSVFLFPPKPKDTLMISRTPEVTCVVVDVSQEDPEVQFNWYVDGVEVHNAKTKPREEQFNSTYRVVSVLTVLHQDWLNGKEYKCKVSNKGLPSSIEKTISKAKGQPREPQVYTLPPSQEEMTKNQVSLTCLVKGFYPSDIAVEWESNGQPENNYKTTPPVLDSDGSFLLYSKLTVDKSRWQEGNVFSCSVMHEALHNHYTQKSLSLSLGK
light 2: QTVVTQEPSLTVSPGGTVTLTCRSSTGAVTTSNYANWVQQKPGQAPRGLIGGTNKRAPGTPARFSGSLLGGKAALTLSGVQPEDEAEYYCALWYSNLWVFGGGTKLTVLGQPKAAPSVTLFPPSSEELQANKATLVCLISDFYPGAVTVAWKADSSPVKAGVETTTPSKQSNNKYAASSYLSLTPEQWKSHRSYSCQVTHEGSTVEKTVAPTECS
notes: IgG4 PAA; PSMA arm chains first, then CD3 arm (F405L, R409K); also called PSMB127 x CD3B219; PS2B27
Kd [1]: 7.48 nM | koff [1]: 0.00156 s⁻¹ | kon [1]: 208000 M⁻¹ s⁻¹ | EC50 [2]: 14.6 nM | EC50 [3]: 22.8 nM | EC50 [4]: 2.07 µg/mL

B2: PS3B28 (bispecific antibody, human IgG4 S228P, kappa, lambda, F234A L235A)
heavy 1: not shown
light 1: not shown
heavy 2: B1 heavy 2
light 2: B1 light 2
notes: IgG4 PAA; PSMA arm chains first, then CD3 arm (F405L, R409K); also called PSMB128 x CD3B219
EC50 [2]: 8.1 nM | EC50 [3]: 7.08 nM | EC50 [4]: 1.16 µg/mL

B3: PS3B25 (bispecific antibody, human IgG4 S228P, kappa, lambda, F234A L235A)
heavy 1: not shown
light 1: not shown
heavy 2: B1 heavy 2
light 2: B1 light 2
notes: IgG4 PAA; also called PSMB87 x CD3B219
Kd [1]: 3.54 nM | koff [1]: 0.00099 s⁻¹ | kon [1]: 281000 M⁻¹ s⁻¹
